The labels stand for the following.
B1: human IGSF11 (VSIG3) on cells (receptor)
chain: LEVSESPGSIQVARGQPAVLPCTFTTSAALINLNVIWMVTPLSNANQPEQVILYQGGQMFDGAPRFHGRVGFTGTMPATNVSIFINNTQLSDTGTYQCLVNNLPDIGGRNIGVTGLTVLVPPSAPHCQIQGSQDIGSDVILLCSSEEGIPRPTYLWEKLDNTLKLPPTATQDQVQGTVTIRNISALSSGLYQCVASNAIGTSTCLLDLQVISPQPRNIGLIAGAIGTGAVIIIFCIALILGAFFYWRSKNKEEEEEEIPNEIREDDLPPKCSSAKAFHTEISSSDNNTLTSSNAYNSRYWSNNPKVHRNTESVSHFSDLGQSFSFHSGNANIPSIYANGTHLVPGQHKTLVVTANRGSSPQVMSRSNGSVSRKPRPPHTHSYTISHATLERIGAVPVMVPAQSRAGSLV

Experiment [1] addresses T1, scFv-Fc-format of antibody A-015.
T1 construct: scFv genetically fused to mouse IgG2A Fc; also called anti-IGSF11 scFv-Fc (mouse IgG2A)
The experiment can be described thus: FACS on monocytes (CD14 gate) from PBMC of healthy volunteer A, labelled secondary antibody; x axis IGSF11 signal.

For experiment [2], the target named is T2, His-tagged extracellular domain (ECD) of human IGSF11 (VSIG3) (human, UniProt Q5DX21 23-241).
T2 construct: partly bought (SinoBiological 13094-H08H); also called IGSF11-HIS; HIS-IGSF11; not shown: HIS6 tag
T2 sequence: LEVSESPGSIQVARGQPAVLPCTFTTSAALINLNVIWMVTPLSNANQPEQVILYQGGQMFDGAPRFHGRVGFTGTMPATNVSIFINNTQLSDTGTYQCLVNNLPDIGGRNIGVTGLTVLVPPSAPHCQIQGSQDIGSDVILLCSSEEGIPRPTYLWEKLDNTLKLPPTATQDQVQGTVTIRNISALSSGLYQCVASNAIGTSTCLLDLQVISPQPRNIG
Put plainly: ELISA, IgG1. (ELISA stands for enzyme-linked immunosorbent assay.)

Experiment [3] addresses T3, IgC2 domain of human IGSF11 fused to murine IgG2a Fc-region (human; mouse, UniProt Q5DX21 137-241).
T3 construct: also called IgC2-like domain mFc fusion; not shown: murine IgG2a Fc-region
T3 sequence: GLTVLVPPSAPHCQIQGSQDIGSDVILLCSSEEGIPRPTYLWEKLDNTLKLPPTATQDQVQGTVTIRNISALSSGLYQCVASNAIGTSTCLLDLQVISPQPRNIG
The experiment can be described thus: ELISA, IgG.

Experiment [4] has as its target T4, IGSF11 ECD fused to murine-Fc (human; mouse, UniProt Q5DX21 23-241).
T4 construct: also called Fc-fusion IGSF11 ECD; full-length ECD of IGSF11; not shown: murine Fc
T4 sequence: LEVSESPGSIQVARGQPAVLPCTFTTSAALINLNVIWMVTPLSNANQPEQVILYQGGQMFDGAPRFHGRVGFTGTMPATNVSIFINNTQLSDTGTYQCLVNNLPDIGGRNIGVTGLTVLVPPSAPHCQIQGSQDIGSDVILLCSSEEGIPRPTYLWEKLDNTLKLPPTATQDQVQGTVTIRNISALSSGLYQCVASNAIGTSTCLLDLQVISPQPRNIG
The experiment can be described thus: ELISA, IgG.

The target of experiment [5] is T5, murine IGSF11 on cells (mouse, UniProt P0C673 23-428).
T5 construct: UniProt P0C673; also called MC38-IGSF11 (murine); CT26-IGSF11 (murine)
T5 sequence: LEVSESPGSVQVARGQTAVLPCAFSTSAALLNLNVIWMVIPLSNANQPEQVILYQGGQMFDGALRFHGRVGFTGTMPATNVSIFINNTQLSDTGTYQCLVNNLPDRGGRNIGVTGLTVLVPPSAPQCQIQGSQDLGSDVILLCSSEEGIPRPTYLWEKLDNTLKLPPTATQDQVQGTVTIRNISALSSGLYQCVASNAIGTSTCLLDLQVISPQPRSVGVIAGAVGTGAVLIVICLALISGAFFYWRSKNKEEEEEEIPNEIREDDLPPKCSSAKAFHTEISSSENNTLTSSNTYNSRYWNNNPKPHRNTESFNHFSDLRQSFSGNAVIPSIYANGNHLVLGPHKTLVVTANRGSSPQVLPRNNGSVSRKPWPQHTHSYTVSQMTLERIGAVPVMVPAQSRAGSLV
The experiment can be described thus: FACS, MC38-IGSF11 cells, IgG. A general note: Flow cytometry measures light scatter and fluorescence of single cells or particles in a stream.
From the text: (§1) Unbound antibodies were removed by washing the cells three time with FACS buffer. Bound antibodies were detected with a mouse anti-human IgG antibody conjugated with AlexaFluor647.

In experiment [6] the target is T5, murine IGSF11 on cells. The experiment can be described thus: FACS, CT26-IGSF11 cells, IgG.
From the text: as §1
Experiment [7] has as its target B1. The experiment can be described thus: FACS, MDA-MB-231-IGSF11 cells, IgG.
From the text: as §1
The target in experiment [8] is T6, recombinant human IGSF11 (VSIG3) extracellular domain (ECD) (human, UniProt Q5DX21 23-241, biotinylated where captured on streptavidin).
T6 construct: also called biotinylated recombinant ECD-IGSF11; IGSF11 (ECD domain)
T6 sequence: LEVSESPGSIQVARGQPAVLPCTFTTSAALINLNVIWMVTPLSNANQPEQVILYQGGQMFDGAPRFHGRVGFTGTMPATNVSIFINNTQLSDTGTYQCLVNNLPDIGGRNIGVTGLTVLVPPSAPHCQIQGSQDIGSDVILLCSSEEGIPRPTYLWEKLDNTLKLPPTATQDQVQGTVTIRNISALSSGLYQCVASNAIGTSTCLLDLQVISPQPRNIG
Put plainly: BLI, apparent affinity, IgG captured, IGSF11 ECD 100 nM. In general terms: Biolayer interferometry detects binding as a change in optical thickness at a sensor tip.
From the text: Briefly, various APBs were loaded on an optical biosensor via a commercially available Capture System (AHC sensors, ForteBio).

The target of experiment [9] is B1. Put plainly: FACS, IgG1-format antibodies; CL-11 cells (C), a line that does not express IGSF11 (specificity control), scrambled control siRNA (SC).
The target in experiment [10] is B1. The experiment can be described thus: FACS, IgG1-format antibodies; M579-A2-luc cells (M) treated with scrambled control siRNA (SC).
Experiment [11] addresses T6, recombinant human IGSF11 (VSIG3) …. Put plainly: SPR, IgG1.
The target of experiment [12] is B1. Put plainly: FACS, IgG1-format antibodies; M579-A2-luc cells (M) treated with IGSF11 siRNA (KD).
Experiment [13] deals with B1. The experiment can be described thus: FACS, DMS 273 cells.
In experiment [14] the target is B1. The experiment can be described thus: FACS, IgG1-format antibodies; CL-11 cells (C), a line that does not express IGSF11 (specificity control), IGSF11 siRNA (KD).
In experiment [15] the target is T2, His-tagged extracellular domain (ECD) …. The experiment can be described thus: ELISA: IgG1-format antibody titrated on coated His-tagged IGSF11; x axis nM IgG, y axis absorbance per legend.
Experiment [16] concerns the target B1. Put plainly: FACS, IgG1-format antibodies; DMS 273 cells (D) treated with scrambled control siRNA (SC).
The target of experiment [17] is T2, His-tagged extracellular domain (ECD) …. The experiment can be described thus: blocking ELISA: antibody pre-incubated with His-tagged IGSF11 ECD, complexes added to immobilised VSIR-Fc; y axis % remaining IGSF11 binding to VSIR, x axis nM IgG per legend.
Experiment [18] deals with B1. The experiment can be described thus: FACS, HEK cells expressing IGSF11.
The target in experiment [19] is B1. The experiment can be described thus: FACS, IgG1-format antibodies; DMS 273 cells (D) treated with IGSF11 siRNA (KD).
For experiment [20], the target named is T2, His-tagged extracellular domain (ECD) …. The experiment can be described thus: blocking ELISA: antibody pre-incubated with His-tagged IGSF11 ECD, complexes added to immobilised VSIR-Fc; y axis % remaining IGSF11 binding to VSIR, x axis nM IgG per legend. The source holds these as a separate data set.

Where two headings read alike, the source gives them in different places. Where only a bound is given, the exact number is not on record here.

The source of these data is patent US20240010720A1 (IOMX THERAPEUTICS, published 2024).

The term EC50 denotes the concentration giving half of the maximal effect. For orientation: EC50 (read off the curve) means the concentration needed to bring the measured effect to its halfway point. A low value points to a more potent agent.

T1 sequence (VL, as listed by the source): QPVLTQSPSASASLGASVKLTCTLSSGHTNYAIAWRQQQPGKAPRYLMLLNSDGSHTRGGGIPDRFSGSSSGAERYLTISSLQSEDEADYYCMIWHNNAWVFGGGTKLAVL

Regarding B1, in [1], the binding result is “binds”.

B2: A-037 (IgG1 format) (antibody, V domains shown)
VH: QVQLVQSGAEVKKPGASVKVSCKASGYTFTGYYMHWVRQAPGQGLEWMGWINPNSGNTGYAQKFQGRVTMTRNTSISTAYMELSSLRSEDTAVYYCARGGQQQLVLDDYWGQGTLVTVSS
VL: NFMLTQPHSVSESPGKTVTISCTGSSGSIASNYVQWYQQRPGSAPTTVIYEDNQRPSGVPDRFSGSIDSSSNSASLTISGLKTEDEADYYCQSYDSSNQRVFGGGTKLTVL
notes: human IgG1 format
Consider B2, for which the binding result in experiment [2] is “binds”.

B3: A-019 (IgG1 format) (antibody, V domains shown)
VH: QVQLVQSGAEVKKPGASVKVSCKASGYTFTGYYMHWVRQAPGQGLEWMGWINPNSGNTGYAQKFQGRVTMTRNTSISTAYMELSSLRSEDTAVYYCARGGQQQLVLDDYWGQGTLVTVSS
VL: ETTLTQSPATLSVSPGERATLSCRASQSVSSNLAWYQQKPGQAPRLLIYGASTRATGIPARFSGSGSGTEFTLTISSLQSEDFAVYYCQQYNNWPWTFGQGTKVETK
notes: human IgG1 format
Turning to B3, in experiment [2], the binding result was “binds”.

B4: C-003 (IgG1 format) (antibody, V domains shown)
VH: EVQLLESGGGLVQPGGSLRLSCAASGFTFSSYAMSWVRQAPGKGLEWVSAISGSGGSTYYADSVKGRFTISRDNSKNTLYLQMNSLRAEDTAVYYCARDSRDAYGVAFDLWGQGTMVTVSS
VL: ASVLTQPPSVSAAPGQKVTISCSGSSSNIGNNYVSWYQQLPGTAPKLLIYDNNKRPSGIPDRFSGSKSGTSATLGITGLQAEDEADYYCLSYTSSQYVFGGGTKLTVL
notes: wildtype human IgG1 and kappa or lambda constant regions
For B4, the EC50 is < 1 nM in [3]; < 1 nM in experiment [4]; < 20 nM in [5]; < 20 nM in [6]; 10 to 15 nM in [7]. Moreover, the Kd in experiment [8] was < 15 nM.

B5: B-002 (chain-swapped IgG1) (antibody, V domains shown)
VH: EVQLVESGGGLIQPGGSLRLSCAASGFTVSSNYMSWVRQAPGKGLEWVSVIYSGGSTYYADSVKGRFTISRDNSKNTLYLQMNSLRAEDTAVYYCARGNPYYYGDLQVNFDYWGQGTLVTVSS
VL: QAVVTQEPSLTVSPGGTVTLTCASSTGAVTSGYYPNWFQQKPGQAPRALIYSTSNKHSWTPARFSGSLLGGKAALTLSGVQPEDEAEYYCLLYYGGAWVFGGGTKLTVL
notes: human IgG1 format; also called B2
Regarding B5, the “percentage binding (FACS heat-map)” value in experiment [9] was found to be 3%; in experiment [10] it was 70.7%; in experiment [12] it was 2.77%; in [14], 4.54%; in [16], 80.1%; in [19], 8.68%. Moreover, the Kd in experiment [11] lay in the range of 100 to 250 nM. Besides, the EC50 is > 50 nM in [13] and 10 to 50 nM in experiment [18]. For the same molecule, the “EC50 (read off the curve)” value in [15] was ~0.01 nM. For the same molecule, the “IC50 (read off the curve)” value in experiment [17] was ~4 nM.

B6: B-004 (chain-swapped IgG1) (antibody, V domains shown)
VH: EVQLLESGGGLIQPGGSLRLSCAVSGFTVSSNYMSWVRQAPGKGLEWVSVIYSGGSTYYADSVKGRFTISRDNSKNTLYLQMNSLRAEDTAVYYCARGNPYYYGDLQVNFDYWGQGTLVTVSS
VL: QAVVTQEPSLTVSPGGTVTLTCASSTGAVTSGYYPNWFQQKPGQAPRPLIYSTSNKHSWTPARFSGSLLGGKAALTLSGVQPDDEAEYYCLLYYGGDWVFGGGTKLTVL
notes: human IgG1 format; also called B4
In the case of B6, the “EC50 (read off the curve)” value in experiment [15] was ~0.02 nM. The “IC50 (read off the curve)” value in experiment [17] was ~5 nM.

B7: B-001 (chain-swapped IgG1) (antibody, V domains shown)
VH: EVQLLESGGGLIQPGGSLRLSCAVSGFTVSSNYMSWVRQAPGKGLEWVSVIYSGGSTYYADSVKGRFTISRDNSKNTLYLQMNSLRAEDTAVYYCARGNPYYYGDLQVNFDYWGQGTLVTVSS
VL: QAVVTQEPSLTVSPGGTVTLTCASSTGAVTSAYYPNWFQQKPGQAPRALIYSTSNKHSWTPARFSGSLLGGKAALTLSGVQPEDEADYYCLLYYGGAWVFGGGTKLTVL
notes: human IgG1 format; also called B1
For the molecule B7, the “IC50 (read off the curve)” value in [20] was ~2 nM. The Kd in experiment [11] lay within 250 to 500 nM. The molecule also gave an EC50 in experiment [18] of 10 to 50 nM.
